The record followed here is paper PMC6133388.

For this assay, the target named is GST-tagged NbSAMS2 (GST-NbSAMS2) (N. benthamiana).

For GST-C4 (natural protein), the NbSAMS2 enzymatic activity in vitro (conversion of 35S-Met to 35S-SAM, TLC) after pre-incubation with varying amounts of GST-C4; reduction of activity at an 8:1 molar ratio of C4:NbSAMS2 was 80%.
